Test results as given in FireProtDB (doi:10.1016/j.jmb.2005.05.056).
“And” between values parts separate entries of the source, which are not always exact repeats. Equal entries are not always repeated.

B1: Small ribosomal subunit protein bS6, P23370 (parent)
chain: MRRYEVNIVLNPNLDQSQLALEKEIIQRALENYGARVEKVEELGLRRLAYPIAKDPQGYFLWYQVEMPEDRVNDLARELRIRDNVRRVMVVKSQEPFLANA

Variants of: B1
Settings: Thermus thermophilus; pH 8; 25 °C; GdnHCl; Fluorescence; Tris-HCl 50 mM; reversible: No; structure 1RIS; whole UniProt chain shown

Variant	unfolding free energy	ddG of mutation (higher = less stable)	denaturant m value	denaturant midpoint (higher = more stable)
E22Q	7.6 kcal/mol and 8.9 kcal/mol and 11.4 kcal/mol	–	–	–
L75A	8.5 kcal/mol and 8.7 kcal/mol and 10.3 kcal/mol	0.9 kcal/mol and 0.8 kcal/mol and 0.7 kcal/mol	3.13 kcal/mol/M and 2.95 kcal/mol/M and 3.19 kcal/mol/M	2.71 M and 2.95 M and 3.24 M
V65A	–	–	2.61 kcal/mol/M and 2.77 kcal/mol/M and 2.84 kcal/mol/M	–
I8A	5.1 kcal/mol and 5 kcal/mol and 6.6 kcal/mol	2.9 kcal/mol and 4.4 kcal/mol	2.78 kcal/mol/M and 2.44 kcal/mol/M and 2.83 kcal/mol/M	1.82 M and 2.05 M and 2.35 M
V88A	8.3 kcal/mol and 6.5 kcal/mol and 9 kcal/mol	1.1 kcal/mol and 3 kcal/mol and 2 kcal/mol	3.12 kcal/mol/M and 2.01 kcal/mol/M and 2.82 kcal/mol/M	2.66 M and 2.9 M and 3.2 M
I26A	5.2 kcal/mol and 6.4 kcal/mol and 7.8 kcal/mol	2.8 kcal/mol and 3 kcal/mol and 3.2 kcal/mol	2.47 kcal/mol/M and 2.61 kcal/mol/M and 2.62 kcal/mol/M	2.09 M and 2.46 M and 2.97 M
Y33A	8.6 kcal/mol and 11.9 kcal/mol and 8.9 kcal/mol	–	2.83 kcal/mol/M and 3.26 kcal/mol/M and 2.34 kcal/mol/M	3.05 M and 3.65 M and 3.82 M
V85A	5.1 kcal/mol and 7.2 kcal/mol	2.9 kcal/mol and 2.3 kcal/mol	2.51 kcal/mol/M and 2.84 kcal/mol/M	2.05 M and 2.54 M
A35G	8.8 kcal/mol and 10.3 kcal/mol	0.6 kcal/mol and 0.7 kcal/mol	2.91 kcal/mol/M and 2.95 kcal/mol/M	3.03 M and 3.5 M
